From patent US20190076400A1 (PROTAGONIST THERAPEUTICS, published 2019)
Square brackets hold non-standard residues; d marks the D form. Phe(2,6-Me2,4-CONH2) = Cc1cc(C(N)=O)cc(C)c1C[C@H](N)C(=O)O; Phe(3,4-(OMe)2) = COc1ccc(C[C@H](N)C(=O)O)cc1OC; Phe(3,4-Cl2) = N[C@@H](Cc1ccc(Cl)c(Cl)c1)C(=O)O; Trp(5-OH) = N[C@@H](Cc1c[nH]c2ccc(O)cc12)C(=O)O; Phe(4-COOH) = N[C@@H](Cc1ccc(C(=O)O)cc1)C(=O)O; Phe(4-tBu) = CC(C)(C)c1ccc(C[C@H](N)C(=O)O)cc1; Dip = N[C@H](C(=O)O)C(c1ccccc1)c1ccccc1; Phe(4-F) = N[C@@H](Cc1ccc(F)cc1)C(=O)O; Dmt = Cc1cc(O)cc(C)c1C[C@H](N)C(=O)O; NMeR = CN[C@@H](CCCNC(=N)N)C(=O)O; dNMeF = CN[C@H](Cc1ccccc1)C(=O)O; hPhe = N[C@@H](CCc1ccccc1)C(=O)O; αMeF = C[C@](N)(Cc1ccccc1)C(=O)O; Tic = O=C(O)[C@@H]1Cc2ccccc2CN1; β3hF = N[C@H](CC(=O)O)Cc1ccccc1; N(octyl)Gly = CCCCCCCCNCC(=O)O; Nle = CCCC[C@H](N)C(=O)O; THP = not defined here; Aib = CC(C)(N)C(=O)O; βAla = NCCC(=O)O; Sar = CNCC(=O)O

B1: H-DMT-r-Phe(3,4-diCl)-Sar-NH2 (peptide)
peptide: H-[Dmt][dR][Phe(3,4-Cl2)][Sar]-NH2
SMILES: Cc1cc(O)cc(C)c1C[C@H](N)C(=O)N[C@H](CCCNC(=N)N)C(=O)N[C@@H](Cc1ccc(Cl)c(Cl)c1)C(=O)N(C)CC(N)=O
B2: H-DMT-r-F-(D)N(Me)Phe-NH2 (peptide)
peptide: H-[Dmt][dR]F[dNMeF]-NH2
SMILES: Cc1cc(O)cc(C)c1C[C@H](N)C(=O)N[C@H](CCCNC(=N)N)C(=O)N[C@@H](Cc1ccccc1)C(=O)N(C)[C@H](Cc1ccccc1)C(N)=O
B3: H-DMT-r-F-HomoPhe-NH2 (peptide)
peptide: H-[Dmt][dR]F[hPhe]-NH2
SMILES: Cc1cc(O)cc(C)c1C[C@H](N)C(=O)N[C@H](CCCNC(=N)N)C(=O)N[C@@H](Cc1ccccc1)C(=O)N[C@@H](CCc1ccccc1)C(N)=O
B4: H-Phe(DMC)-(D)Asp-G-bhF-Sar-NH2 (peptide)
peptide: H-[Phe(2,6-Me2,4-CONH2)][dD]G[β3hF][Sar]-NH2
SMILES: Cc1cc(C(N)=O)cc(C)c1C[C@H](N)C(=O)N[C@H](CC(=O)O)C(=O)NCC(=O)N[C@H](CC(=O)N(C)CC(N)=O)Cc1ccccc1
B5: H-DMT-r-F-alpha-MePhe-NH2 (peptide)
peptide: H-[Dmt][dR]F[αMeF]-NH2
SMILES: Cc1cc(O)cc(C)c1C[C@H](N)C(=O)N[C@H](CCCNC(=N)N)C(=O)N[C@@H](Cc1ccccc1)C(=O)N[C@@](C)(Cc1ccccc1)C(N)=O
B6: H-DMT-r-DPA-Sar-NH2 (Seq. ID 26) (peptide)
peptide: H-[Dmt][dR][Dip][Sar]-NH2
SMILES: Cc1cc(O)cc(C)c1C[C@H](N)C(=O)N[C@H](CCCNC(=N)N)C(=O)N[C@H](C(=O)N(C)CC(N)=O)C(c1ccccc1)c1ccccc1
B7: H-DMT-r-F-Nle-NH2 (peptide)
peptide: H-[Dmt][dR]F[Nle]-NH2
SMILES: CCCC[C@H](NC(=O)[C@H](Cc1ccccc1)NC(=O)[C@@H](CCCNC(=N)N)NC(=O)[C@@H](N)Cc1c(C)cc(O)cc1C)C(N)=O
B8: H-DMT-N(Me)Arg-G-bhF-Sar-NH2 (peptide)
peptide: H-[Dmt][NMeR]G[β3hF][Sar]-NH2
SMILES: Cc1cc(O)cc(C)c1C[C@H](N)C(=O)N(C)[C@@H](CCCNC(=N)N)C(=O)NCC(=O)N[C@H](CC(=O)N(C)CC(N)=O)Cc1ccccc1
B9: H-Phe(DMC)-Aib-G-bhF-Sar-NH2 (peptide)
peptide: H-[Phe(2,6-Me2,4-CONH2)][Aib]G[β3hF][Sar]-NH2
SMILES: Cc1cc(C(N)=O)cc(C)c1C[C@H](N)C(=O)NC(C)(C)C(=O)NCC(=O)N[C@H](CC(=O)N(C)CC(N)=O)Cc1ccccc1
B10: H-DMT-r-Phe(3,4-diOMe)-Sar-NH2 (peptide)
peptide: H-[Dmt][dR][Phe(3,4-(OMe)2)][Sar]-NH2
SMILES: COc1ccc(C[C@H](NC(=O)[C@@H](CCCNC(=N)N)NC(=O)[C@@H](N)Cc2c(C)cc(O)cc2C)C(=O)N(C)CC(N)=O)cc1OC
B11: H-DMT-a-Val-bhF-Sar-NH2 (peptide)
peptide: H-[Dmt][dA]V[β3hF][Sar]-NH2
SMILES: Cc1cc(O)cc(C)c1C[C@H](N)C(=O)N[C@H](C)C(=O)N[C@H](C(=O)N[C@H](CC(=O)N(C)CC(N)=O)Cc1ccccc1)C(C)C
B12: H-Phe(DMC)-N(Me)Arg-G-bhF-Sar-NH2 (peptide)
peptide: H-[Phe(2,6-Me2,4-CONH2)][NMeR]G[β3hF][Sar]-NH2
SMILES: Cc1cc(C(N)=O)cc(C)c1C[C@H](N)C(=O)N(C)[C@@H](CCCNC(=N)N)C(=O)NCC(=O)N[C@H](CC(=O)N(C)CC(N)=O)Cc1ccccc1
B13: H-DMT-r-4-tBu-Phe-Sar-NH2 (peptide)
peptide: H-[Dmt][dR][Phe(4-tBu)][Sar]-NH2
SMILES: Cc1cc(O)cc(C)c1C[C@H](N)C(=O)N[C@H](CCCNC(=N)N)C(=O)N[C@@H](Cc1ccc(C(C)(C)C)cc1)C(=O)N(C)CC(N)=O
B14: H-DMT-r-F-Phe(3,4-diOMe)-NH2 (peptide)
peptide: H-[Dmt][dR]F[Phe(3,4-(OMe)2)]-NH2
SMILES: COc1ccc(C[C@H](NC(=O)[C@H](Cc2ccccc2)NC(=O)[C@@H](CCCNC(=N)N)NC(=O)[C@@H](N)Cc2c(C)cc(O)cc2C)C(N)=O)cc1OC
B15: H-DMT-r-Tic-Sar-NH2 (peptide)
peptide: H-[Dmt][dR][Tic][Sar]-NH2
SMILES: Cc1cc(O)cc(C)c1C[C@H](N)C(=O)N[C@H](CCCNC(=N)N)C(=O)N1Cc2ccccc2C[C@H]1C(=O)N(C)CC(N)=O
B16: H-Phe(DMC)-a-G-bhF-Gly-NH2 (peptide)
peptide: H-[Phe(2,6-Me2,4-CONH2)][dA]G[β3hF]G-NH2
SMILES: Cc1cc(C(N)=O)cc(C)c1C[C@H](N)C(=O)N[C@H](C)C(=O)NCC(=O)N[C@H](CC(=O)NCC(N)=O)Cc1ccccc1
B17: H-DMT-r-F-Octyl Gly-NH2 (peptide)
peptide: H-[Dmt][dR]F[N(octyl)Gly]-NH2
SMILES: CCCCCCCCN(CC(N)=O)C(=O)[C@H](Cc1ccccc1)NC(=O)[C@@H](CCCNC(=N)N)NC(=O)[C@@H](N)Cc1c(C)cc(O)cc1C

Target: δ-opioid receptor (DOR), Human-ORPD1 (human, UniProt P41143 1-372)
Experiment: cell-based or functional assay

δ-opioid receptor (DOR), Human-ORPD1, sequence (P41143 whole entry, stated change not applied): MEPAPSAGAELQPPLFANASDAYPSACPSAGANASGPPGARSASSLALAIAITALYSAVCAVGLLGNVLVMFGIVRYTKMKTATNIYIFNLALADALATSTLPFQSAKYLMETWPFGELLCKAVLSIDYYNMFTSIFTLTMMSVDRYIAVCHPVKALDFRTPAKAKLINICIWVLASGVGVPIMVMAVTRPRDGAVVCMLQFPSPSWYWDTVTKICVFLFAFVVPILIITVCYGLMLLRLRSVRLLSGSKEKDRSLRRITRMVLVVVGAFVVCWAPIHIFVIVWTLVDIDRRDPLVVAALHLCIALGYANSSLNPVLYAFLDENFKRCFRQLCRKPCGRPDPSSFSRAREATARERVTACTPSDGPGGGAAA

**Q.** Which “DOR EC50” value does the source give for H-[Dmt][dR][BIP][Sar]-NH2 [H-DMT-r-BIP-Sar-NH2] here?
**A.** ≤ 1 nM

**Q.** With B1 as the binder, how does the “DOR EC50” value read?
**A.** ≤ 50 nM

**Q.** Which “DOR EC50” value does the source give for B2 here?
**A.** ≤ 50 nM

**Q.** How did the “DOR EC50” value turn out when B3 was run?
**A.** ≤ 10 nM

**Q.** Which “DOR EC50” value does the source give for B4 here?
**A.** ≤ 1 nM

**Q.** For H-[Dmt][dA][THP][β3hF][Sar]-NH2 (reading uncertain; also: printed as H-DMT-a-THP-bhF-Sar-NH2) [H-DMT-a-THP-bhF-Sar-NH2], which “DOR EC50” value is on record?
**A.** ≤ 200 nM

**Q.** H-[Dmt][dR]F[Phe(4-F)]-NH2 [H-DMT-r-F-Phe(4-F)-NH2] was tested. Which “DOR EC50” value did it give?
**A.** ≤ 50 nM

**Q.** How did the “DOR EC50” value turn out when B5 was run?
**A.** ≤ 10 nM

**Q.** Which “DOR EC50” value does the source give for B6 here?
**A.** > 200 nM

**Q.** How did the “DOR EC50” value turn out when H-[Phe(4-tetrazolyl)][dA]G[β3hF][Sar]-NH2 [H-Phe(4-tetrazolyl)-a-G-bhF-Sar-NH2] was run?
**A.** ≤ 200 nM

**Q.** Which “DOR EC50” value does the source give for B7 here?
**A.** ≤ 50 nM

**Q.** Which “DOR EC50” value does the source give for H-[Trp(5-OH)][dA]G[β3hF][Sar]-NH2 [H-Trp(5-OH)-a-G-bhF-Sar-NH2] here?
**A.** ≤ 200 nM

**Q.** How did the “DOR EC50” value turn out when B8 was run?
**A.** ≤ 200 nM

**Q.** How did the “DOR EC50” value turn out when B9 was run?
**A.** ≤ 50 nM

**Q.** B10 was tested. Which “DOR EC50” value did it give?
**A.** > 200 nM

**Q.** B11 was tested. Which “DOR EC50” value did it give?
**A.** ≤ 200 nM

**Q.** For H-[Phe(2,6-Me2,4-CONH2)]AG[β3hF][Sar]-OH [H-Phe(DMC)-A-G-bhF-Sar-OH], which “DOR EC50” value is on record?
**A.** ≤ 200 nM

**Q.** B12 was tested. Which “DOR EC50” value did it give?
**A.** ≤ 200 nM

**Q.** B13 was tested. Which “DOR EC50” value did it give?
**A.** > 200 nM

**Q.** For H-[Phe(2,6-Me2,4-CONH2)][dA]G[Tic][Sar]-NH2 [H-Phe(DMC)-a-G-Tic-Sar-NH2], which “DOR EC50” value is on record?
**A.** ≤ 50 nM

**Q.** How did the “DOR EC50” value turn out when B14 was run?
**A.** ≤ 10 nM

**Q.** With H-[Dmt][dA][βAla][β3hF][Sar]-NH2 [H-DMT-a-bAla-bhF-Sar-NH2] as the binder, how does the “DOR EC50” value read?
**A.** ≤ 200 nM

**Q.** How did the “DOR EC50” value turn out when B15 was run?
**A.** > 200 nM

**Q.** How did the “DOR EC50” value turn out when B16 was run?
**A.** ≤ 10 nM

**Q.** With B17 as the binder, how does the “DOR EC50” value read?
**A.** ≤ 200 nM

**Q.** H-[Phe(4-COOH)][dA]G[β3hF][Sar]-NH2 [H-Phe(4-COOH)-a-G-bhF-Sar-NH2] was tested. Which “DOR EC50” value did it give?
**A.** ≤ 200 nM
